Experimental findings from paper PMC5716193 are described below.

Assay [1] has as its target Opbp[1–174] fragment after deletion of TRX (Drosophila). The experiment in a line: cross-linking.
The target of assay [2] is Thioredoxin-tagged Opbp[114–174] (Drosophila). The experiment in a line: cross-linking.

“Opbp[1–174] fragment after deletion of TRX (domain or fragment)”: the stoichiometry N (as a rule, a count of units in the complex or per binding partner) in assay [1] was found to be 2.

With “Thioredoxin-tagged Opbp[114–174] (domain or fragment)”, the stoichiometry N in assay [2] worked out at 2.
